Results published in patent publication US20200199241A1 (Chugai, published 2020).

B1: IgG1-F940 (antibody)
heavy: QVQLQESGPGLVKPSETLSLTCAVSGHSISHDHAWSWVRQPPGEGLEWIGFISYSGITNYNPSLQGRVTISRDNSKNTLYLQMNSLRAEDTAVYYCARSLARTTAMDYWGEGTLVTVSSASTKGPSVFPLAPSSKSTSGGTAALGCLVKDYFPEPVTVSWNSGALTSGVHTFPAVLQSSGLYSLSSVVTVPSSSLGTQTYICNVNHKPSNTKVDKKVEPKSCDKTHTCPPCPAPELLGGDSVFLFPPKPKDVLYISRTPEVTCVVVDVSHEDPEVKFNWYVDGVEVHNAKTKPREEQYNSTYRVVSVLTVLHQDWLNGKEYKCKVSNKALPAPIEKTISKAKGQPREPQVYTLPPSRDELTKNQVSLTCLVKGFYPSDIAVEWESNGQPENNYKTTPPVLDSDGSFFLYSKLTVDKSRWQQGNVFSCSVMHEALHYHVTQKSLSLSP
light: not shown
notes: EU numbering; copies: 2 + 2
B2: IgG1-F970 (antibody)
heavy: QVQLQESGPGLVKPSETLSLTCAVSGHSISHDHAWSWVRQPPGEGLEWIGFISYSGITNYNPSLQGRVTISRDNSKNTLYLQMNSLRAEDTAVYYCARSLARTTAMDYWGEGTLVTVSSASTKGPSVFPLAPSSKSTSGGTAALGCLVKDYFPEPVTVSWNSGALTSGVHTFPAVLQSSGLYSLSSVVTVPSSSLGTQTYICNVNHKPSNTKVDKKVEPKSCDKTHTCPPCPAPELLGGPSVFLFPPKPKDTLYIGRTPEVTCVVVDVSHEDPEVKFNWYVDGVEVHNAKTKPREEQYNSTYRVVSVLTVLHQDWLNGKEYKCKVSNKALPAPIEKTISKAKGQPREPQVYTLPPSRDELTKNQVSLTCLVKGFYPSDIAVEWESNGQPENNYKTTPPVLDSDGSFFLYSKLTVDKSRWQQGNVFSCSVMHEALHYHYTQKSLSLSP
light: not shown
notes: EU numbering; copies: 2 + 2
B3: IgG1-F971 (antibody)
heavy: QVQLQESGPGLVKPSETLSLTCAVSGHSISHDHAWSWVRQPPGEGLEWIGFISYSGITNYNPSLQGRVTISRDNSKNTLYLQMNSLRAEDTAVYYCARSLARTTAMDYWGEGTLVTVSSASTKGPSVFPLAPSSKSTSGGTAALGCLVKDYFPEPVTVSWNSGALTSGVHTFPAVLQSSGLYSLSSVVTVPSSSLGTQTYICNVNHKPSNTKVDKKVEPKSCDKTHTCPPCPAPELLGGPSVFLFPPKPKDTLYIHRTPEVTCVVVDVSHEDPEVKFNWYVDGVEVHNAKTKPREEQYNSTYRVVSVLTVLHQDWLNGKEYKCKVSNKALPAPIEKTISKAKGQPREPQVYTLPPSRDELTKNQVSLTCLVKGFYPSDIAVEWESNGQPENNYKTTPPVLDSDGSFFLYSKLTVDKSRWQQGNVFSCSVMHEALHYHYTQKSLSLSP
light: not shown
notes: EU numbering; copies: 2 + 2
B4: IgG1-F966 (antibody)
heavy: QVQLQESGPGLVKPSETLSLTCAVSGHSISHDHAWSWVRQPPGEGLEWIGFISYSGITNYNPSLQGRVTISRDNSKNTLYLQMNSLRAEDTAVYYCARSLARTTAMDYWGEGTLVTVSSASTKGPSVFPLAPSSKSTSGGTAALGCLVKDYFPEPVTVSWNSGALTSGVHTFPAVLQSSGLYSLSSVVTVPSSSLGTQTYICNVNHKPSNTKVDKKVEPKSCDKTHTCPPCPAPELLGGPSVFLFPPKPKDTLYIARTPEVTCVVVDVSHEDPEVKFNWYVDGVEVHNAKTKPREEQYNSTYRVVSVLTVLHQDWLNGKEYKCKVSNKALPAPIEKTISKAKGQPREPQVYTLPPSRDELTKNQVSLTCLVKGFYPSDIAVEWESNGQPENNYKTTPPVLDSDGSFFLYSKLTVDKSRWQQGNVFSCSVMHEALHYHYTQKSLSLSP
light: not shown
notes: EU numbering; copies: 2 + 2
B5: IgG1-F945 (antibody)
heavy: QVQLQESGPGLVKPSETLSLTCAVSGHSISHDHAWSWVRQPPGEGLEWIGFISYSGITNYNPSLQGRVTISRDNSKNTLYLQMNSLRAEDTAVYYCARSLARTTAMDYWGEGTLVTVSSASTKGPSVFPLAPSSKSTSGGTAALGCLVKDYFPEPVTVSWNSGALTSGVHTFPAVLQSSGLYSLSSVVTVPSSSLGTQTYICNVNHKPSNTKVDKKVEPKSCDKTHTCPPCPAPELLGGPSVFLFPPKPKDVLYISRTPEVTCVVVDVSHEDPEVKFNWYVDGVEVHNAKTKPREEQYNSTYRVVSVLTPLHQDWLNGKEYKCKVSNKALPAPIEKTISKAKGQPREPQVYTLPPSRDELTKNQVSLTCLVKGFYPSDIAVEWESNGQPENNYKTTPPVLDSDGSFFLYSKLTVDKSRWQQGNVFSCSVMHEALHYHVTQKSLSLSP
light: not shown
notes: EU numbering; copies: 2 + 2
B6: IgG1-F947 (antibody)
heavy: QVQLQESGPGLVKPSETLSLTCAVSGHSISHDHAWSWVRQPPGEGLEWIGFISYSGITNYNPSLQGRVTISRDNSKNTLYLQMNSLRAEDTAVYYCARSLARTTAMDYWGEGTLVTVSSASTKGPSVFPLAPSSKSTSGGTAALGCLVKDYFPEPVTVSWNSGALTSGVHTFPAVLQSSGLYSLSSVVTVPSSSLGTQTYICNVNHKPSNTKVDKKVEPKSCDKTHTCPPCPAPELLGGPSVFLFPPKPKDVLYISRTPEVTCVVVDVSHEDPEVKFNWYVDGVEVHNAKTKPREEQYNSTYRVVSVLQPLHADWLNGKEYKCKVSNKALPAPIEKTISKAKGQPREPQVYTLPPSRDELTKNQVSLTCLVKGFYPSDIAVEWESNGQPENNYKTTPPVLDSDGSFFLYSKLTVDKSRWQQGNVFSCSVMHEALHYHVTQKSLSLSP
light: not shown
notes: copies: 2 + 2
B7: IgG1-F946 (antibody)
heavy: QVQLQESGPGLVKPSETLSLTCAVSGHSISHDHAWSWVRQPPGEGLEWIGFISYSGITNYNPSLQGRVTISRDNSKNTLYLQMNSLRAEDTAVYYCARSLARTTAMDYWGEGTLVTVSSASTKGPSVFPLAPSSKSTSGGTAALGCLVKDYFPEPVTVSWNSGALTSGVHTFPAVLQSSGLYSLSSVVTVPSSSLGTQTYICNVNHKPSNTKVDKKVEPKSCDKTHTCPPCPAPELLGGPSVFLFPPKPKDVLYISRTPEVTCVVVDVSHEDPEVKFNWYVDGVEVHNAKTKPREEQYNSTYRVVSVLQVLHADWLNGKEYKCKVSNKALPAPIEKTISKAKGQPREPQVYTLPPSRDELTKNQVSLTCLVKGFYPSDIAVEWESNGQPENNYKTTPPVLDSDGSFFLYSKLTVDKSRWQQGNVFSCSVMHEALHYHVTQKSLSLSP
light: not shown
notes: EU numbering; copies: 2 + 2
B8: IgG1-F944 (antibody)
heavy: QVQLQESGPGLVKPSETLSLTCAVSGHSISHDHAWSWVRQPPGEGLEWIGFISYSGITNYNPSLQGRVTISRDNSKNTLYLQMNSLRAEDTAVYYCARSLARTTAMDYWGEGTLVTVSSASTKGPSVFPLAPSSKSTSGGTAALGCLVKDYFPEPVTVSWNSGALTSGVHTFPAVLQSSGLYSLSSVVTVPSSSLGTQTYICNVNHKPSNTKVDKKVEPKSCDKTHTCPPCPAPELLGGPSVFLFPPKPKDVLYISRTPEVTCVVVDVSHEDPEVKFNWYVDGVEVHNAKTKPREEQYNSTYRVVSVLTVLHQDWLNGKEYKCKVSNKALPAPIEKTISKAKGQPREPQVYTLPPSRDELTKNQVSLTCLVKGFYPSDIAVEWESNGQPENNYKTTPPVLDSDGSFFLYSKLTVDKSRWQQGNVFSCSVMHEALHYHVTQKSLSLSP
light: not shown
notes: EU numbering; copies: 2 + 2
B9: IgG1-F960 (antibody)
heavy: QVQLQESGPGLVKPSETLSLTCAVSGHSISHDHAWSWVRQPPGEGLEWIGFISYSGITNYNPSLQGRVTISRDNSKNTLYLQMNSLRAEDTAVYYCARSLARTTAMDYWGEGTLVTVSSASTKGPSVFPLAPSSKSTSGGTAALGCLVKDYFPEPVTVSWNSGALTSGVHTFPAVLQSSGLYSLSSVVTVPSSSLGTQTYICNVNHKPSNTKVDKKVEPKSCDKTHTCPPCPAPELLGGPSVFLFPPKPKDTLYISRTPEVTCVVVDVSHEDPEVKFNWYVDGVEVHNAKTKPREEQYNSTYRVVSVLTVLHQDWLNGKEYKCKVSNKALPAPIEKTISKAKGQPREPQVYTLPPSRDELTKNQVSLTCLVKGFYPSDIAVEWESNGQPENNYKTTPPVLDSDGSFFLYSKLTVDKSRWQQGNVFSCSVMHEALHYRVTQKSLSLSP
light: not shown
notes: EU numbering; copies: 2 + 2
B10: IgG1-F954 (antibody)
heavy: QVQLQESGPGLVKPSETLSLTCAVSGHSISHDHAWSWVRQPPGEGLEWIGFISYSGITNYNPSLQGRVTISRDNSKNTLYLQMNSLRAEDTAVYYCARSLARTTAMDYWGEGTLVTVSSASTKGPSVFPLAPSSKSTSGGTAALGCLVKDYFPEPVTVSWNSGALTSGVHTFPAVLQSSGLYSLSSVVTVPSSSLGTQTYICNVNHKPSNTKVDKKVEPKSCDKTHTCPPCPAPELLGGPSVFLFPPKPKDTLYISRTPEVTCVVVDVSHEDPEVKFNWYVDGVEVHNAKTKPREEQYNSTYRVVSVLTVLHQDWLNGKEYKCKVSNKALPAPIEKTISKAKGQPREPQVYTLPPSRDELTKNQVSLTCLVKGFYPSDIAVEWESNGQPENNYKTTPPVLDSDGSFFLYSKLTVDKSRWQQGNVFSCSVMHEALHYKVTQKSLSLSP
light: not shown
notes: EU numbering; copies: 2 + 2
B11: IgG1-F957 (antibody)
heavy: QVQLQESGPGLVKPSETLSLTCAVSGHSISHDHAWSWVRQPPGEGLEWIGFISYSGITNYNPSLQGRVTISRDNSKNTLYLQMNSLRAEDTAVYYCARSLARTTAMDYWGEGTLVTVSSASTKGPSVFPLAPSSKSTSGGTAALGCLVKDYFPEPVTVSWNSGALTSGVHTFPAVLQSSGLYSLSSVVTVPSSSLGTQTYICNVNHKPSNTKVDKKVEPKSCDKTHTCPPCPAPELLGGPSVFLFPPKPKDTLYISRTPEVTCVVVDVSHEDPEVKFNWYVDGVEVHNAKTKPREEQYNSTYRVVSVLTVLHQDWLNGKEYKCKVSNKALPAPIEKTISKAKGQPREPQVYTLPPSRDELTKNQVSLTCLVKGFYPSDIAVEWESNGQPENNYKTTPPVLDSDGSFFLYSKLTVDKSRWQQGNVFSCSVMHEALHYNVTQKSLSLSP
light: not shown
notes: EU numbering; copies: 2 + 2
B12: IgG1-F942 (antibody)
heavy: QVQLQESGPGLVKPSETLSLTCAVSGHSISHDHAWSWVRQPPGEGLEWIGFISYSGITNYNPSLQGRVTISRDNSKNTLYLQMNSLRAEDTAVYYCARSLARTTAMDYWGEGTLVTVSSASTKGPSVFPLAPSSKSTSGGTAALGCLVKDYFPEPVTVSWNSGALTSGVHTFPAVLQSSGLYSLSSVVTVPSSSLGTQTYICNVNHKPSNTKVDKKVEPKSCDKTHTCPPCPAPELKGGPKVFLFPPKPKDTLYISRTPEVTCVVVDVSHEDPEVKFNWYVDGVEVHNAKTKPREEQYNSTYRVVSVLQVLHADWLNGKEYKCKVSNKALPAPIEKTISKAKGQPREPQVYTLPPSRDELTKNQVSLTCLVKGFYPSDIAVEWESNGQPENNYKTTPPVLDSDGSFFLYSKLTVDKSRWQQGNVFSCSVMHEALHYHVTQKSLSLSP
light: not shown
notes: EU numbering; copies: 2 + 2
B13: IgG1-F943 (antibody)
heavy: QVQLQESGPGLVKPSETLSLTCAVSGHSISHDHAWSWVRQPPGEGLEWIGFISYSGITNYNPSLQGRVTISRDNSKNTLYLQMNSLRAEDTAVYYCARSLARTTAMDYWGEGTLVTVSSASTKGPSVFPLAPSSKSTSGGTAALGCLVKDYFPEPVTVSWNSGALTSGVHTFPAVLQSSGLYSLSSVVTVPSSSLGTQTYICNVNHKPSNTKVDKKVEPKSCDKTHTCPPCPAPELRGGPKVFLFPPKPKDTLYISRTPEVTCVVVDVSHEDPEVKFNWYVDGVEVHNAKTKPREEQYNSTYRVVSVLQVLHADWLNGKEYKCKVSNKALPAPIEKTISKAKGQPREPQVYTLPPSRDELTKNQVSLTCLVKGFYPSDIAVEWESNGQPENNYKTTPPVLDSDGSFFLYSKLTVDKSRWQQGNVFSCSVMHEALHYHVTQKSLSLSP
light: not shown
notes: EU numbering; copies: 2 + 2

target: T1, soluble human FcRn complexed with β2-microglobulin (human, UniProt P61769 21-119, limits assumed); assay: Biacore SPR, pH 7.0;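 further: test antibodies captured on a Protein L chip with human FcRn flowed over as analyte, KD obtained as the ratio of dissociation to association rate constants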
T1 construct: also called hFcRn
T1 sequence (chain, as listed by the source limits assumed, chain 1 of 2): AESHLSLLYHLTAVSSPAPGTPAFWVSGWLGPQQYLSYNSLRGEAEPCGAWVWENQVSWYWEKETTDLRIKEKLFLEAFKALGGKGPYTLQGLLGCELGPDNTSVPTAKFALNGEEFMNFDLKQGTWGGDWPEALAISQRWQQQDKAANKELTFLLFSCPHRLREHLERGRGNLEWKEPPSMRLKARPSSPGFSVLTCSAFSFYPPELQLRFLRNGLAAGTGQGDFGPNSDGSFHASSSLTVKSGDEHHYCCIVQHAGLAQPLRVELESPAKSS
T1 sequence (P61769 21-119 limits assumed, chain 2 of 2): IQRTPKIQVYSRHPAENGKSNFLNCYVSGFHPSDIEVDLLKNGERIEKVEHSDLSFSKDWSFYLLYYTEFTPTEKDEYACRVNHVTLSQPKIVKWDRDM

Row | Binder | Kd [nM]
1 | B1 | 150
2 | B2 | 2500
3 | B3 | 2600
4 | B4 | 310
5 | B5 | 17
6 | B6 | 11
7 | B7 | 43
8 | B8 | 170
9 | B9 | 800
10 | B10 | 530
11 | B11 | 770
12 | B12 | 42
13 | B13 | 40
